Test results as given in paper PMC11825685 (Nature Communications, 2024).

How the values were obtained:
[1] = molecular target: Mycobacterium tuberculosis (Mtb) PhoP, phosphorylated (Mycobacterium tuberculosis) (UniProt P71814); assay: cryo-EM structure
[2] = molecular target: RNAP holoenzyme (sigma A);GlnR (Mycobacterium …, UniProt P9WGZ1;P9WGY9;P9WGY7;P9WGY5;P9WGI1;O53830 1-347;1-1178;1-1316;1-110;1-528;1-255, |); assay: EMSA
[3] = molecular target: T1, Mtb RNAP β subunit (Mycobacterium tuberculosis, UniProt P9WGY9 1-1178); assay: cryo-EM structure
T1 sequence: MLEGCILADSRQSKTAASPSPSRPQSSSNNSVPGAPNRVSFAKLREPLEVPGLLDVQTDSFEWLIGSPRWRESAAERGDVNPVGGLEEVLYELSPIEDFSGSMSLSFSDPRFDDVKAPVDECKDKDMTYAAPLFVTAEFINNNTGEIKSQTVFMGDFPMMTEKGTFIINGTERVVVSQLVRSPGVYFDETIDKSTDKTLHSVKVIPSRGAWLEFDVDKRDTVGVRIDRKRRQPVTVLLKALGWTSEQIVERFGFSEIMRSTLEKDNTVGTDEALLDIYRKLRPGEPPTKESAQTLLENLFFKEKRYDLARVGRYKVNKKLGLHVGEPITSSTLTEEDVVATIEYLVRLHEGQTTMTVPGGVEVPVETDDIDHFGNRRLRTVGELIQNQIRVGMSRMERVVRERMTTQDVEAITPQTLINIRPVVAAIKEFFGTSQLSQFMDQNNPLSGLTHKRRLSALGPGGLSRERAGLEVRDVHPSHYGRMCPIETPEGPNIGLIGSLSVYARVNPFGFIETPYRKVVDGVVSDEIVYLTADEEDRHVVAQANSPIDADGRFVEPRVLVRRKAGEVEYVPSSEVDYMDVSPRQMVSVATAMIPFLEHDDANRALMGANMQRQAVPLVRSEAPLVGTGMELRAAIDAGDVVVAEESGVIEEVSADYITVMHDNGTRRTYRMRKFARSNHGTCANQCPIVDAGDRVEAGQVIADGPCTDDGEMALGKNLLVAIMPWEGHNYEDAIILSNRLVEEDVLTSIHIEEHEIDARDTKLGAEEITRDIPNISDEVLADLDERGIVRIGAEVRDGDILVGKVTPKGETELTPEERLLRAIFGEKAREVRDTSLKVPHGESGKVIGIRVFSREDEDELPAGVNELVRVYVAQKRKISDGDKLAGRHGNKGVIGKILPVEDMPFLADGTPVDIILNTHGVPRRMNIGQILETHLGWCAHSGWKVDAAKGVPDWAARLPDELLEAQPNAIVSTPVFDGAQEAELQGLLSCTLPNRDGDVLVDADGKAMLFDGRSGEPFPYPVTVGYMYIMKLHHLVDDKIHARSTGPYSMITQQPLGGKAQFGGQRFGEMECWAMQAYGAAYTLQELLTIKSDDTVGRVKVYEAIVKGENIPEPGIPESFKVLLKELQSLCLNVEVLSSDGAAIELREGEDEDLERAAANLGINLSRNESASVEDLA

[4] = molecular target: T2, Mtb RNAP σ^A (Mycobacterium tuberculosis, UniProt P9WGI1); assay: cryo-EM structure
T2 sequence: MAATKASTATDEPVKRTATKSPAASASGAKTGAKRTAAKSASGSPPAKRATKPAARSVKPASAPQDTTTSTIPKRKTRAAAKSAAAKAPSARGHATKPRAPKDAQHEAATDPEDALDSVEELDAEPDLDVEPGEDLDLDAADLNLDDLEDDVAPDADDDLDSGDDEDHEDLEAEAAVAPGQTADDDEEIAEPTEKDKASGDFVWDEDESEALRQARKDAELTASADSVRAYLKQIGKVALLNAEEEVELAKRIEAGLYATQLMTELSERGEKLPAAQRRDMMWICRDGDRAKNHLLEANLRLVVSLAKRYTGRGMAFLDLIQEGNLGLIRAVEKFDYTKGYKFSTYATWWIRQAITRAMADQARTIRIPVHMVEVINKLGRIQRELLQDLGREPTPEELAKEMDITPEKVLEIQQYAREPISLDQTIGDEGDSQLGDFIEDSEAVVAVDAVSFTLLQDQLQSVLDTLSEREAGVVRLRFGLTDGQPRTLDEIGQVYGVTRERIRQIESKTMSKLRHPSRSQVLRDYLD

[5] = molecular target: T3, Mtb RNAP α subunit (Mycobacterium tuberculosis, UniProt P9WGZ1); assay: cryo-EM structure
T3 sequence: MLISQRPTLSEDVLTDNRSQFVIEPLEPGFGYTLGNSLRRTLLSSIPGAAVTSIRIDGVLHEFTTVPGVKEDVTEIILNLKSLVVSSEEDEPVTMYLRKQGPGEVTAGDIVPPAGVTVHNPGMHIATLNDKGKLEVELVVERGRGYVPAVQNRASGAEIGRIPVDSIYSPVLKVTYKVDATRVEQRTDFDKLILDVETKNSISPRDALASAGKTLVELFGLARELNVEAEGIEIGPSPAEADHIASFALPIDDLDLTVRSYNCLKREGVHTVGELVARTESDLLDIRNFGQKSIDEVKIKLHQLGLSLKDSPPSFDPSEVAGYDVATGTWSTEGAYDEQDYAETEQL

[6] = molecular target: the molecule itself; assay: cryo-EM structure

Molecule: Mycobacterium tuberculosis (Mtb) PhoP, phosphorylated (from UniProt P71814 1-247) (natural protein)
- stoichiometry N [1]: 2

B1: phoU promoter (mango-fused) (dsDNA)
DNA 1: ACCTCGAACACTCGTCGCCCAGAGTTCACCTTGGAGCCAGGGACGGTTCATTTGGGGTGCCGGAAACGGACGCGTACAGGCCGGAACGTGTAAGCGTGGGGGCACGGCGGGGGGCGCGAAGCCGGCACGTACGAAGGAAGGATTGGTATGTGGTATATTCGTACGTGCC
DNA 2: GGCACGTACGAATATACCACATACCAATCCTTCCTTCGTACGTGCCGGCTTCGCGCCCCCCGCCGTGCCCCCACGCTTACACGTTCCGGCCTGTACGCGTCCGTTTCCGGCACCCCAAATGAACCGTCCCTGGCTCCAAGGTGAACTCTGGGCGACGAGTGTTCGAGGT
- binding result [2]: no binding

B2: Mtb GlnR (natural protein)
chain: MLELLLLTSELYPDPVLPALSLLPHTVRTAPAEASSLLEAGNADAVLVDARNDLSSGRGLCRLLSSTGRSIPVLAVVSEGGLVAVSADWGLDEILLLSTGPAEIDARLRLVVGRRGDLADQESLGKVSLGELVIDEGTYTARLRGRPLDLTYKEFELLKYLAQHAGRVFTRAQLLHEVWGYDFFGGTRTVDVHVRRLRAKLGPEHEALIGTVRNVGYKAVRPARGRPPAADPDDEDADPGRDGMQEPLVDPLRSQ
- binding result [3]: binds
- binding result [4]: binds
- binding result [5]: binds
- binding result [6]: binds
